Values of other authors, collected in paper PMC5176006.

Biological target: IscU (Escherichia coli) (UniProt P0ACD4)
UniProt P0ACD4, sequence (P0ACD4 whole entry): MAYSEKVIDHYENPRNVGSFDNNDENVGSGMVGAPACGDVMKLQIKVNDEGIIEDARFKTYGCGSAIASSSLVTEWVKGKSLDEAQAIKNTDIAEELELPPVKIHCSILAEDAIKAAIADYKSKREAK

IscS (from UniProt P0A6B7)
Kd: 1000 nM
